Measurements taken from US20250263502A1.
Positions count from the first letter of the chain named. Numbers in names are those of the source.

B1: VNAR clone G10 fused N-terminally to human IgG1 Fc (VNAR-hFc) (Fc fusion, not shown: a dimerising Fc or GST)
chain: ARVDQTPQTITKETGESLTINCVLRDSNCALSSTYWYRKKSGSTNEENISKGGRYVETVNSGSKSFSLKINDLTVEDSGTYRCKVVFKLFSGRACAGEKDVYGGGTVVTVNA
B2: VNAR clone F11 fused N-terminally to human IgG1 Fc (VNAR-hFc) (Fc fusion, not shown: a dimerising Fc or GST)
chain: ARVDQTPQTITKEEGESLTINCVLRGEFYALASTSWYRKKSGSTREETISKGGRYVETVNSGSKSFSLRINDLTVEDSGTYRCNVYGYRIFSPEVKGPNDVYGDGTAVTVNA
B3: VNAR clone H6 fused N-terminally to human IgG1 Fc (VNAR-hFc) (Fc fusion, not shown: a dimerising Fc or GST)
chain: ARVDQTPQTITKEEGESLTINCVLRTHSNALASTSWYRKKSGSTREETISKGGRYVETVNSGSKSFSLRINDLTVEDSGTYRCNVYAFLEIQPNIYHEFDVYGDGTAVTVNA
B4: VNAR clone E12 fused N-terminally to human IgG1 Fc (VNAR-hFc) (Fc fusion, not shown: a dimerising Fc or GST)
chain: ARVDQTPQTITKEEGESLTINCVLRTQDPALASTSWYRKKSGSTREETISKGGRYVETVNSGSKSFSLRINDLTVEDSGTYRCNVYFLLAPTKTKLQGIDVYGDGTAVTVNA
B5: VNAR clone F1 fused N-terminally to human IgG1 Fc (VNAR-hFc) (Fc fusion, not shown: a dimerising Fc or GST)
chain: ARVDQTPQTITKEEGESLTINCVLRVHGRALASTSWYRKKSGSTREETISKGGRYVETVNSGSKSFSLRINDLTVEDSGTYRCNVYGLSSGDIEGVKKIDVYGDGTAVTVNA
B6: VNAR clone H12 fused N-terminally to human IgG1 Fc (VNAR-hFc) (Fc fusion, not shown: a dimerising Fc or GST)
chain: B5 chain with R29C, S90F, G91V
B7: VNAR clone F12 fused N-terminally to human IgG1 Fc (VNAR-hFc) (Fc fusion, not shown: a dimerising Fc or GST)
chain: B5 chain with S90F
B8: VNAR clone G3 fused N-terminally to human IgG1 Fc (VNAR-hFc) (Fc fusion, not shown: a dimerising Fc or GST)
chain: ARVDQTPQTITKETGESLTINCVLRDNNCALSTTYWYRKKSGSTNEENISKGGRYVETVNSGSKSFSLRINDLTVEDSGTYRCKVHFFPSFCNSTSIRSVDVYGGGTVVTVNA
B9: VNAR clone A8 fused N-terminally to human IgG1 Fc (VNAR-hFc) (Fc fusion, not shown: a dimerising Fc or GST)
chain: ARVDQTPQTITKEEGESLTINCVLRRNFQLASTSWYRKKSGSTREETISKGGRYVETVNSGSKSFSLRINDLTVEDSGTYRCNVYGFVEFAKNIVEFIDVYGDGTAVTVNA
B10: VNAR clone G6 fused N-terminally to human IgG1 Fc (VNAR-hFc) (Fc fusion, not shown: a dimerising Fc or GST)
chain: ARVDQTPQTITKEEGESLTINCVLRVETRALASTSWYRKKSGSTREETISKGGRYVETVNSGSKSFSLRINDLTVEDSGTYRCNVYIRHYSEFTQAPFRDVYGDGTAVTVNA
B11: VNAR clone B12 fused N-terminally to human IgG1 Fc (VNAR-hFc) (Fc fusion, not shown: a dimerising Fc or GST)
chain: ARVDQTPRSVTKETGESLTINCVLRDASYALGSTCWYRKKSGSTNEESISKGGRYVETVNSGSKSFSLRINDLTVEDGGTYRCGVARGWRTLNYLCDVRTGEWSCVWRAAACGDGTAVTVNA
B12: VNAR clone G12 fused N-terminally to human IgG1 Fc (VNAR-hFc) (Fc fusion, not shown: a dimerising Fc or GST)
chain: ARVDQTPQTITKETGESLTINCVLRDSNCALSSTYWYRKKSGSTNEALISKGGRYVETVNSGSKSFSLRINDLTVEDSGTYRCNVVQDLRDDCFFRDVYGGGTAVTVNA
B13: VNAR clone C6 fused N-terminally to human IgG1 Fc (VNAR-hFc) (Fc fusion, not shown: a dimerising Fc or GST)
chain: B12 chain with Q87Y
B14: VNAR clone H8 fused N-terminally to human IgG1 Fc (VNAR-hFc) (Fc fusion, not shown: a dimerising Fc or GST)
chain: ARVDQTPQTITKETGESLTINCVLRDSNCALPSTYWYRKKSGSTNEESISKGGRYVETVNSGSKSFSLRINDLVVEDSGTYRCKVGNYCIRLCYDMKFAVDVYGGGTAVTVNA
B15: VNAR clone H7A fused N-terminally to human IgG1 Fc (VNAR-hFc) (Fc fusion, not shown: a dimerising Fc or GST)
chain: PGVDQTEQTIKKEEGESVTIKCVMRVKYPALASTSRYRKKSGSREETISKGGRYVETVNYSSKSISVRINDMTVEDSGRYRCNVYEEYAVDCDALVYQDVYGDGTAVTVNA
B16: VNAR clone H7 fused N-terminally to human IgG1 Fc (VNAR-hFc) (Fc fusion, not shown: a dimerising Fc or GST)
chain: ARVDQTPQTITKEEGESLTINCVLRYNNPALASTSWYRKKSGSTREETISKGGRYVETVNSGSKSFSLRINDLTVEDSGTYRCNVYFFPSFLVDKLQSHDVYGDGTAVTVNA
B17: VNAR clone D1 fused N-terminally to human IgG1 Fc (VNAR-hFc) (Fc fusion, not shown: a dimerising Fc or GST)
chain: ARVDQTPQTITKEEGESLTINCVLRHNYSALASTSWYRKKSGSTREETISKGGRYVETVNSGSKSFSLRINDLTVEDSGTYRCNVYGISFIEEKIRYDFDVYGDGTAVTVNA

biological target: Human serum albumin (human) (UniProt P02768); assay: ELISA, expression medium of VNAR-hFc on coated protein (negative control)
Sequence (P02768 25-609 limits assumed): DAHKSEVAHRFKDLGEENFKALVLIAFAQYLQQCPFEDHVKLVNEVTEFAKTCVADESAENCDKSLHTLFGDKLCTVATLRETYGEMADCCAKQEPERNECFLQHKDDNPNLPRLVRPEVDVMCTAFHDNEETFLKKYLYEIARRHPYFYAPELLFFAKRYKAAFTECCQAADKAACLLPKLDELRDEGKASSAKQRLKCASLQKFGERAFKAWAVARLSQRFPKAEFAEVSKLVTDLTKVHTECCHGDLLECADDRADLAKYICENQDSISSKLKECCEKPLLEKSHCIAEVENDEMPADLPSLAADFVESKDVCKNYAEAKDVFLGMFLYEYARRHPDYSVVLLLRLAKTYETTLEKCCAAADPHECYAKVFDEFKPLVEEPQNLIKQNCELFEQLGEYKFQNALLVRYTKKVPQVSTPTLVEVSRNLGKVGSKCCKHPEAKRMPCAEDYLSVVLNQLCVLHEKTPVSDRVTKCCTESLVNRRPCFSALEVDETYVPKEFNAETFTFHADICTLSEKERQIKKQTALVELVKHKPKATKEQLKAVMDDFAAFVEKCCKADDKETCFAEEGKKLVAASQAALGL

Binding [relative units] (relative units) | Binder
0.051 | B1
0.072 | B2
0.06 | B3
0.056 | B4
0.073 | B5
0.055 | B6
0.112 | B7
0.053 | B8
0.065 | B9
0.052 | B10
0.081 | B11
0.054 | B12
0.052 | B13
0.059 | B14
0.054 | B15
0.072 | B16
0.074 | B17

biological target: ectodomain of murine CD98hc (mouse) (UniProt P10852); assay: ELISA, expression medium of VNAR-hFc on coated protein
Sequence (P10852 100-526): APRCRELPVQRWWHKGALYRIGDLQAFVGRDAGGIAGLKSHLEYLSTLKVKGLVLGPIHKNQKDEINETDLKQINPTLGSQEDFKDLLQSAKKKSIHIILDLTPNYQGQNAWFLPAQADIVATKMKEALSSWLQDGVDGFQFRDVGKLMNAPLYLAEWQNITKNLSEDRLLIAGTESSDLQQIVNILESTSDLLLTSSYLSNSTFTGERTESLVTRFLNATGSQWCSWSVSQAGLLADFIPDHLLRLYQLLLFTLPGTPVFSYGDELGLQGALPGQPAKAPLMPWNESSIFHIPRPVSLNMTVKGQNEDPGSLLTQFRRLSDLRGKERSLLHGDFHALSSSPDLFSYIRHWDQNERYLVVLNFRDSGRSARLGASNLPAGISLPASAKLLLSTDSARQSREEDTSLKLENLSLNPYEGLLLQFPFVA

Binding [relative units] (relative units) | Binder
0.041 | B1
0.096 | B2
0.186 | B3
0.078 | B4
0.115 | B5
0.045 | B6
0.563 | B7
0.041 | B8
0.135 | B9
0.041 | B10
0.084 | B11
0.044 | B12
0.042 | B13
0.049 | B14
0.043 | B15
0.108 | B16
0.417 | B17

biological target: ectodomain of human CD98hc (human) (UniProt P08195); assay: as above
Sequence (P08195 206-630): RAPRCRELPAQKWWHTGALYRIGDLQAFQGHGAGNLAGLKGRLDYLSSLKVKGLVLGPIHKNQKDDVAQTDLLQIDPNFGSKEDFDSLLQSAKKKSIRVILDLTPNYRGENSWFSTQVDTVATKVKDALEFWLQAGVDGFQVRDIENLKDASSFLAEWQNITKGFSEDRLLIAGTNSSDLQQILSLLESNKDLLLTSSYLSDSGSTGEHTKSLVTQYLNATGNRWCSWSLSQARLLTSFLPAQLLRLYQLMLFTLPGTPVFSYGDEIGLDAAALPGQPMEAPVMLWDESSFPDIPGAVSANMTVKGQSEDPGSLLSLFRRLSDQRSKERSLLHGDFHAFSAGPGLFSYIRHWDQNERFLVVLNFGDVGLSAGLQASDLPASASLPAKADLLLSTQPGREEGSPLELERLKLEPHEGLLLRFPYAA

Binding [relative units] (relative units) | Binder
0.043 | B1
3.03 | B2
0.046 | B6
2.97 | B9
0.042 | B10
0.076 | B11
0.044 | B12
0.041 | B13
0.048 | B14
0.043 | B15

biological target: ectodomain of murine CD98hc (mouse) (UniProt P10852); assay: ELISA, purified VNAR-Fc titrated on coated CD98hc

EC50 | Binder
86 nM | B3
819 nM | B4
3860 nM | B5
72 nM | B7
504 nM | B16
190 nM | B17
